Measured values from patent US11807881B2, “Polypeptide, fusion polypeptide, and antibiotic against gram-negative bacteria comprising same” (priority 2020, dated 2023).

Legend:
[1] = tested on: Acinetobacter baumannii (ATCC 19606); experiment: FIC index, combination of colistin and LNT103; format: cell-based; conditions: LNT103 in combination with colistin (polymyxin E)
Description: The synergy effect of killing ability against gram negative bacterium by combination treatment of a polymyxin-based antibiotic having a mechanism acting on the cell membrane of bacterium and the fusion polypeptide LNT103 was confirmed. Specifically, colistin (polymyxin E) of […] was treated to a 96 well microplate column 1, and it was treated at a concentration where serial dilution was performed by ½ in columns 2-11. The LNT103 of 16 μg/ml was treated to row A, and it was treated at a concentration where serial dilution was performed by ½ in rows B-G. After that, Acinetobacter baumannii (ATCC 19606) was treated in an amount of 5×10^5 CFU/ml, total 100 μl in all wells. Then, it was cultured at 37° C. for 18 hours, and the FIC (Fractional Inhibitory Concentration) index value was calculated by the following equation: FIC index=FICA+FICB=(CA/MICA)+(CB/MICB)
(CA and CB are each concentration of substances treated in combination (polymyxin E and LNT103), and MICA and MICB are MIC of single drug,
FIC value: synergy effect <0.5; antagonism >4; additive 0.5-4)

[2] = tested on: gram negative bacterium (Pseudomonas aeruginosa (PA01; ATCC 15692) and Acinetobacter baumannii (ATCC 19606)); experiment: NPN uptake assay (outer membrane permeabilization); format: cell-based
Description: In order to evaluate the outer membrane permeabilization activity of the gram negative bacterium of the fusion polypeptide prepared in the Example 3.2, NPN uptake assay was performed. As representative gram negative bacterium, Pseudomonas aeruginosa and Acinetobacter baumannii were used for the test.
Pseudomonas aeruginosa (PA01; ATCC 15692) or Acinetobacter baumannii (ATCC 19606) was cultured by OD600=0.3 and centrifuged at 1,000 g for 10 minutes, and then it was resuspended with a ½ volume of 5 mM HEPES (Hydroxyethyl piperazine Ethane Sulfonic acid) (pH 7.2). 40 μM NPN (1-N-phenylnaphthylamine) solution (40 μM NPN in 5 mM HEPES, pH7.2) 50 μl, the test substance (LNT101, LNT102 or LNT103) 50 μl, and strain suspension solution 100 μl (total 200 μl) were added to a microplate and reacted at 37° C. for 1 hour. Then, fluorescence was measured under the condition of excitation 350 nm and emission 420 nm with a microplate reader (Infinite M200 Pro, TECAN). As a positive control group, Cecropin A (SEQ ID NO: 8), EDTA, or polymyxin B was used, and as a negative control group, 10 μM NPN solution was used. All the experiments were performed in 3 sets. […]

[3] = tested on: Pseudomonas aeruginosa PA01; experiment: Galleria mellonella Pseudomonas aeruginosa infected model, viability; format: in vivo; conditions: PA01 50 CFU/larva
Description: The Pseudomonas aeruginosa killing ability of the endolysin LNT101 was also confirmed in vivo. As an animal model for the in vivo effectivity evaluation, Galleria mellonella was used. The Galleria mellonella model was divided into the healthy group (non-infection group), Pseudomonas aeruginosa infected group (drug non-administration group), 2 LNT101 administration groups in which LNT101 was administered into the infection model, Colistin administration group in which colistin was administered into the Pseudomonas aeruginosa infected model, and combination administration group in which LNT101 and colistin were administered in combination into the Pseudomonas aeruginosa infected model to progress an experiment, and 10 of Galleria mellonella per each group was used.
The Pseudomonas aeruginosa infected model was prepared by infecting Pseudomonas aeruginosa PA01 at the LD80 concentration, 50 CFU/larva, and LNT101 was administered at 0.6 μg/larva (3 mg/Kg) and 6 μg/larva (30 mg/Kg), respectively. Colistin was administered at 0.5 μg/larva (2.5 mg/Kg), and for administration in combination, Colistin at 0.5 μg/larva (2.5 mg/Kg) and LNT101 at 6 μg/larva (30 mg/Kg) were administered. […] In particular, in the LNT101 6 μg/larva (30 mg/Kg) administration group, the viability of 30% was confirmed.

Enterobacter cloacae = experiment: CFU reduction test; format: cell-based; conditions: E. cloacae CCARM 0252
Text: (§1) In addition, that the LNT101 endolysin had the antibacterial ability in various gram negative bacterium was confirmed by a CFU reduction test, and the result was shown in Table 2 below.

Klebsiella aerogenes = experiment: CFU reduction test; format: cell-based; conditions: K. aerugenes CCARM 16006
Text: as §1

Pseudomonas aeruginosa = experiment: CFU reduction test (killing ability in vitro); format: cell-based
Description: For this, the endolysin LNT101 at a concentration of 0.1, 0.5, 1.0 μM and Pseudomonas aeruginosa (ATCC 13388) […] CFU were added so that the final volume was 200 μl to reaction buffer (20 mM Tris-Cl, pH 7.5) and they were left at 37° C. for […]. In 30 minutes, 1 hour and 2 hours, the number of colonies of Pseudomonas aeruginosa was confirmed, and the result was shown in FIG. 3.
as §1

B1: LNT103: fusion polypeptide [Cecropin A]-[linker (GSGSGS)]-[endolysin LNT102]; SEQ ID NO: 15 (MAS, His tag) used in the tests (protein)
chain: MASKWKLFKKIEKVGQNIRDGIIKAGPAVAVVGQATQIAKGSGSGSMGTVLKRGDRGSAVEDLQMKLNVAGYNLSADGIFGGDTEKAVRDVQAGAGLVVDGKVGPKTLYAIAKSATVPAKWEAIPFPTANKSRSAAMPTLNAVGAMTGVDSRLLATFASIESAFDYTVKAKTSSATGWFQFLDATWDDMIKAYGSKYGIPKDPTRALRKDPRANALMGAEFIKGNAAVLRPVINREPSDTDLYLAHFLGAGGAKKFLSADQKTLGEVLFPKPAKANPSIFSNKGVPRTLAEIYKLFEDKVSKHRALEHHHHHH
modifications: synthetic_Fusion Polypeptide LNT103 with MAS, His tag, and extra sequence
- FIC index value ([1]; 5×10^5 CFU/ml, 37° C. 18 hours): 0.375
- interaction of the two substances by FIC index ([1]; synergy effect <0.5): there was a synergy effect between the two substances
- outer membrane permeabilization activity (NPN uptake, fold change over control) ([2]; 2 μM, 37° C. 1 hour, compared with LNT101, LNT102, cecropin A 2 μM, polymyxin B 2 μM, EDTA 1 mM): higher outer membrane permeabilization activity against gram negative bacterium than the polypeptides LNT101 and LNT102 at the same concentration
- outer membrane permeabilization activity (NPN uptake, fold change over negative control) ([2]; LNT103 0.29 μM, 0.88 μM, 2.65 μM): increased in a concentration-dependent manner

B2: LNT101: endolysin derived from bacteriophage PBPA90, amino acid sequence SEQ ID NO: 1 (259 aa), purified with 6× His tag (protein)
chain: MGTVLKRGDRGSAVEDLQMKLRVAGYAVSADGIFGGDTEKAVRDFQASKALVVDGKVGPATLAELAKSATVPAKWEAIPFPTANKSRSAAMPTLNAVGAMTGTDSRLLATFASIESAFDYTVKASTSSATGWFQFLDATWDDMIKAHGSKYGIPKDPTRALRKDPRANALMGAEFLKGNAAVLRPVINREPSDTDLYLAHFLGAGGAKKFLSADQKTLGEVLFPKPAKANPSIFSNKGVPRTLAEIYKLFEDKVSKHRA
modifications: 6xHis tag; synthetic_Endolysin LNT101
- viability of Galleria mellonella ([3]; LNT101 6 μg/larva (30 mg/Kg), 72 hours): 30%
- viability of Galleria mellonella ([3]; LNT101 0.6 or 6 μg/larva, Colistin 0.5 μg/larva, observation for 72 hours): the viability was increased
- CFU reduction (Enterobacter cloacae): ◯ (‘◯’ means reduction of 0.5 log CFU or more through the CFU reduction assay)
- CFU reduction (Klebsiella aerogenes): ◯ (‘◯’ means reduction of 0.5 log CFU or more through the CFU reduction assay)
- killing ability against Pseudomonas aeruginosa (number of colonies) (Pseudomonas aeruginosa; ATCC 13388 10^6 CFU, 0.1, 0.5, 1.0 μM, 30 minutes, 1 hour and 2 hours, 37° C.): had the killing ability against Pseudomonas aeruginosa in all the tested treatment dose and time
- CFU reduction (Pseudomonas aeruginosa; P. aeruginosa ATCC 13388): ◯ (‘◯’ means reduction of 0.5 log CFU or more through the CFU reduction assay)
- CFU reduction (Pseudomonas aeruginosa; P. aeruginosa ATCC 15522): ◯ (‘◯’ means reduction of 0.5 log CFU or more through the CFU reduction assay)
- CFU reduction (Pseudomonas aeruginosa; P. aeruginosa CCARM 2092): ◯ (‘◯’ means reduction of 0.5 log CFU or more through the CFU reduction assay)
- CFU reduction (Pseudomonas aeruginosa; P. aeruginosa CCARM 2134): ◯ (‘◯’ means reduction of 0.5 log CFU or more through the CFU reduction assay)
- CFU reduction (Pseudomonas aeruginosa; P. aeruginosa CCARM 2144): ◯ (‘◯’ means reduction of 0.5 log CFU or more through the CFU reduction assay)
- CFU reduction (Pseudomonas aeruginosa; P. aeruginosa CCARM 2326): ◯ (‘◯’ means reduction of 0.5 log CFU or more through the CFU reduction assay)
- CFU reduction (Pseudomonas aeruginosa; P. aeruginosa F141): ◯ (‘◯’ means reduction of 0.5 log CFU or more through the CFU reduction assay)
- CFU reduction (Pseudomonas aeruginosa; P. aeruginosa PAO1): ◯ (‘◯’ means reduction of 0.5 log CFU or more through the CFU reduction assay)
